In this test the target is taxol-stabilized microtubules (porcine brain tubulin) (porcine) (UniProt P02550). Put plainly: co-sedimentation.

Usually Kd stands for the free concentration of one partner at which half of the binding sites on the other are occupied at equilibrium, for simple one-to-one binding. Read a low Kd as a tighter complex.

In turn, “chick Fmn2 FH2FSI (1148th-1587th aa) (from UniProt A0A1B2VWD2 1148-1587) (domain or fragment)” had a Kd of 1.6 µM. For “chick Fmn2 FH2_ΔFSI (1148th-1563rd aa) (from UniProt A0A1B2VWD2 1148-1563) (domain or fragment)” the value was 18.6 µM.

For the origin of these results see article doi:10.1101/2020.01.18.911131.
